# Residue numbers refer to the chain shown, from its start. Several values for one entry are separate records, joined by “and”; a condition that tells them apart may be missing. Equal entries are not always repeated.
# B1: 3-51 (antibody, V domains shown)
# VH: QVQLQQSGAELVRPGVSVKISCKGSGYTFTDYAIHWVKQRHAKSLEWIGVISTYYGDTRYNQKFKGKATMTVDKSSNTAYMELARLTSEDSAIYYCARGGLRQDYAMNYWGQGTSVTVSS
# VL: not shown
# B2: 3-12 (antibody, V domains shown)
# VH: QVQLQQPGAVLVKPGASVKMSCKASGYTFTSYNMHWLKQTPGQGLEWIGAIAPGKGDTSHNQKFKGKATLTADKSSSTAYMQLSSLTSEDSAVYYCARRNNYEPFVYWGQGTLVTVSA
# VL: DIVFTQSPASLAVSLGQRATISCRASESVEYYGTSLMQWYQQKPGQPPKLLIYAASNVESGVPARFSGSGSGTDFSLNIHPVEADDIAMYFCQQSRKVPFTFGSGTKLEIK
# B3: 3-47 (antibody, V domains shown)
# VH: QVQLQQPGAELVKPGASVKMSCKASGYTFTSYNMHWVKQTPGQGLEWIGAISPGNGDTSYNQKFKGKATLTADKSSSTAYMQLSSLTSEDSAVYYCARGKNGNVPMDYWGQGTSVTVSS
# VL: B2 VL with F4L, Q38K, N57I, A84E, F100W, S104G
# B4: 3-52 (antibody, V domains shown)
# VH: QVQLQQPGSELVRPGASVKLSCKASGYTFTSYWMHWVKQRPGQGLEWIGNIWPGSASTNYDEKFKNKATLTVDTSSSTAYMQLSSLTSEDSAVYYCIRGGKGAMDYWSQGTSVTVSS
# VL: DVVMTQIPLSLPVSLGDQASISCRSSQSLENSYGNTYLNWYLQKPGQSPQLLIYRVSNRFSGVLDRFSGSGSGTDFTLKISRVEAEDLGVYFCLQVTHVPPTFGAGTKLELK
# B5: 3-34 (antibody, V domains shown)
# VH: EVQLQQSGPELVKPGASVKISCKTSGYTFTEYTIHWVKQSHGKSLEWVGGINPDNGNTRYDQKFKGKATLTIDKSSSTAYMELRSLTSEDSAVYYCARVARSSGSGPYAMDYWGQGTSVTVSS
# VL: DVVMTQTPLSLPVSLGDQASISCRCTQSLLHTNGDTYLHWYLQKPGQSPKLLIYKVSNRFSGVPDRFSGSGSGTDFTLKISRVEAEDLGVYFCSQSTHVPYTFGGGTKLEIK
# B6: 3-42 (antibody, V domains shown)
# VH: QVQLKESGPGLVAPSQSLSITCTVSGFSLTDYRVSWIRQPPGKGLEWLGVIWGGRSTYYNSALKSRLSISKDNSKSQVFLKMNSLQTDDTAMYYCAKQGDGYYALDYWGQGTSVTVSS
# VL: B5 VL with C25S, T26S, L30V, T32S, N33Y, D35N, S68H, Y101P
# B7: 3-44 (antibody, V domains shown)
# VH: QVQLKESGPGLVAPSQSLSITCTVSGFSLTDYGVSWIRQPPGKGPEWLGVIWGGGNTYYNSVLKSRLSISNDNSKSQVFLRMNSLQTADTAIYYCARPRRDYYALDYWGQGTSVTVAS
# VL: B5 VL with C25S, T26S, L30V, H31Y, D35N, Y37F, Y101P
# B8: 3-23 (antibody, V domains shown)
# VH: QVQLVETGGGLVRPGNSLKLSCVISGFTFSNYRIHWLRQPPGKRLEWIAVITVKSDNYEANYAESVKGRFTISRDDSKSSVYLQMNRLREEDTATYYCSRPDGFSPFVYWGQGTLVTVSA
# VL: DIKMTQSPSSMYASLGERVTITCKASQDINNYLSWFQQKPGKSPKTLIYRADRLVDGVPSRFSGSGSGQDYSLTISSLDYEDMGIYYCLQYAEFPPTFGAGTKLELK
# B9: 3-31 (antibody, V domains shown)
# VH: DVQLQESGPGLVKPSQSLSLTCTVTGYSITSNYAWNWIRQFPGNKLEWMVYITYSGSTRFNPSLKSRISITRDTSKNQFFLQLNSVTTEDTATYYCARGENLFAYWGQGTLVIVSA
# VL: DVVMTQTPLSLPVSLGDQASISCRSSQSLVHNNGNTYLHWYLQKPGQSPKLLIYKVSNRFSGVPDRFSGSGSGTDFTLKINRLEAEDLGVYFCSQSTYVPLTFGAGTKLELK
# B10: 3-40 (antibody, V domains shown)
# VH: QVQLKESGPGLVAPSQSLSITCTVSGLSMNDYVVTWIRQPPGKGLEWLGVIWGGGNTYYNSDLKSRLSITKDNSKSQVFFKMSSLQTDDTAVYYCARRHRDYALDYWGQGISVTVSS
# VL: ENVLTQSPAIMSASPGEKVTMTCRASSSVSSSYLHWYQQKSGASPKLWIYSTSNLASGVPARFSGSGSGTSYSLTISSVEAEDAATYYCQQYSGYPYTFGGGTKLEIK
# What was measured:
# [1] = target: T1, human CCR8 (human, UniProt P51685 1-355); assay: flow cytometry, hCCR8 transfected CHOK1 cells
# T1 construct: the cells are named under assay; also called hCCR8
# Method: Briefly, 1·10⁵ cells per well in a 96 well plate were incubated with a dilution of unconjugated anti-CCR8 mAb at 10 μg/mL then diluted at 1/3.33, 4 dilution points (during 30 min at 4° C.). […] To determine EC50 value, 8 concentrations of anti-CCR8 mAb were tested. Unbound antibodies were washed away with PBS (Invitrogen by Thermofisher Scientific, Illkirch-Graffenstaden, France) supplemented by 2% Fetal Bovine Serum (Invitrogen by Thermofisher Scientific, Illkirch-Graffenstaden, France) and 2 mM EDTA (Invitrogen by Thermofisher Scientific, Illkirch-Graffenstaden, France). Subsequently, cells are centrifuged (5 min at 400 g) and bound antibody is detected with F(ab′)₂-Goat anti-Mouse IgG (H+L) Cross-Adsorbed Secondary Antibody, Alexa Fluor 488 (dilution 1/500) (Invitrogen by Thermofisher Scientific, Illkirch-Graffenstaden, France) or with F(ab′)₂-Goat anti-Human IgG Fc Secondary Antibody, PE (Invitrogen by Thermofisher Scientific, Illkirch-Graffenstaden, France) (dilution 1/1000) at 4° C. for 30 min. Detection reagent is washed away and cells are centrifuged (5 min at 400 g) and resuspended in 30 μL PBS. Bound detection antibody is quantified on a MacsQuant16 (Miltenyi, Gladbach, Germany) (B1 or B2 channel, 5000 events per acquisition).
# [2] = target: pm5 (human, sulfated tyrosines at Y15 and Y17); assay: ELISA on coated peptide [cont.]
# Method: (§1) The specific binding properties of antibodies were evaluated by ELISA with coated CCR8 related peptides (500 ng/mL) in carbonate/bicarbonate buffer. Different peptides were used as described in Table 1 (see Example 1). Each anti-CCR8 mAb was tested at 1 μg/mL then diluted at 1/10. After an incubation at room temperature during 90 min, unbound mAbs were removed by washings. […] After washings, 3,3′,5,5′-tetramethylbenzidine (TMB) (Interchim, Montlugon, France) was added for 15 min. Then the optical density (OD) was determined by using a multiplate reader (Tecan, Lyon, France) and correlated with mAb reactivity on the panel of coated peptides.
# [3] = target: pm8 (human, sulfated tyrosines at Y15, Y16 and Y17); assay: ELISA on coated peptide [cont.]
# Method: as §1
# [4] = target: T1, human CCR8; assay: cell-based or functional assay
# [5] = target: pm6 (human, sulfated tyrosines at Y16 and Y17); assay: ELISA on coated peptide [cont.]
# Method: as §1
# [6] = target: pm3 (human, sulfated tyrosine at Y17); assay: ELISA on coated peptide [cont.]
# Method: as §1
# [7] = target: T1, human CCR8; assay: cell-based or functional assay; remark: listed apart in the source
# pm8 (human, sulfated tyrosines at Y15, Y16 and Y17), sequence (peptide, as listed by the source): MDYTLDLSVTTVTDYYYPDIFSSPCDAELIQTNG
# pm3 (human, sulfated tyrosine at Y17), sequence (peptide, as listed by the source): as above
# pm6 (human, sulfated tyrosines at Y16 and Y17), sequence (peptide, as listed by the source): as above
# pm5 (human, sulfated tyrosines at Y15 and Y17), sequence (peptide, as listed by the source): as above
Binder,% positive cells [1] [%],MFI fold change to isotype ctrl [1] [fold],binding result [2],binding result [3],"IC50 (Gi2 BRET, pH 6.5) [4]","IC50 (Gi2 BRET, pH 7.4) [4]",binding result [5],binding result [6],"hCCL1 (100 nM) residual response, Protocol #2, mAb 0.08 µg/mL [7] [%]","hCCL1 (100 nM) residual response, Protocol #2, mAb 0.4 µg/mL [7] [%]","hCCL1 (100 nM) residual response, Protocol #2, mAb 10 µg/mL [7] [%]","hCCL1 (100 nM) residual response, Protocol #3, mAb 0.05 µg/mL [7] [%]","hCCL1 (100 nM) residual response, Protocol #3, mAb 0.5 µg/mL [7] [%]","hCCL1 (100 nM) residual response, Protocol #3, mAb 5 µg/mL [7] [%]"
B1,73.2,6.91,binds,binds,> 67 nM and > 10 µg/ml,> 10 µg/ml and > 67 nM,–,–,–,–,–,–,–,–
B2,87.8,14.9,binds,binds,0.037 µg/ml and 0.248 nM,0.088 µg/ml and 0.587 nM,binds,–,–,–,–,–,–,–
B3,75.8,6.81,binds,binds,0.175 µg/ml and 1.16 nM,0.483 µg/ml and 3.22 nM,binds,binds,–,–,–,–,–,–
B4,81.6,9.92,–,–,0.078 µg/ml and 0.523 nM,0.087 µg/ml and 0.579 nM,–,–,99,83,56,116,90,45
B5,73.7,10.3,binds,binds,0.207 µg/ml and 1.38 nM,0.281 µg/ml and 1.88 nM,binds,binds,–,–,–,–,–,–
B6,57.7,3.84,binds,binds,0.516 µg/ml and 3.44 nM,0.82 µg/ml and 5.47 nM,binds,binds,–,–,–,–,–,–
B7,78.9,6.36,binds,binds,0.578 µg/ml and 3.85 nM,0.812 µg/ml and 5.41 nM,binds,binds,–,–,–,–,–,–
B8,80,12.7,binds,binds,> 4.5 µg/ml and > 30 nM,> 4.5 µg/ml and > 30 nM,binds,binds,–,–,–,–,–,–
B9,65.6,5.35,binds,binds,0.163 µg/ml and 1.09 nM,0.237 µg/ml and 1.58 nM,binds,binds,–,–,–,–,–,–
B10,69.9,5.81,binds,binds,–,–,binds,binds,–,–,–,–,–,–

# From US20260234276A1 (DOMAIN THERAPEUTICS, published 2026)
